Reference: patent US20190112385A1 (NBE THERAPEUTICS, published 2019)

Legend:
[1] = biological target: T1, StrepII-tagged Mesothelin (human mesothelin isoform 2, NP_037536, with C-terminal strepII-tag) (human, UniProt Q13421-1 296-606, limits assumed); experiment: SPR, Biacore T200, mAb captured by anti-human Fc, Mesothelin-strep as analyte
T1 construct: also called Mesothelin-strep; soluble antigen

[2] = biological target: T1, StrepII-tagged Mesothelin (human …); experiment: SPR (Biacore T200), mAb from 293T supernatant captured by anti-human Fc-gamma IgG, Mesothelin-strep 10 to 1.25 nM as analyte, 25 °C, 1:1 model
Protocol: (§1) Table 1. Affinities of parental mouse mAb MN and humanized versions thereof. To evaluate the binding strength (affinity) of the generated humanized monoclonal antibodies (mAbs), and to compare affinites with parental mAbs, surface plasmon resonance (SPR) measurements were conducted, a biophysical method to accurately determine affinity. SPR was performed using a Biacore T200 instrument (GE Healthcare, Buckinghamshire, UK) and data was evaluated using Biacore Evaluation T200 V2.0 software. To capture mAbs, goat a-human Fc-gamma-specific IgG (Jackson ImmunoResearch, #109-005-098) was covalently immobilized on a CMS chip (GE Healthcare, # BR-1005-30).
FIG. 10C Isoaffinity plot showing association (kₐ) and dissociation constants (kd) as determined by surface plasmon resonance (SPR). The same supernatants as described in (B) were used for the analysis. Diagonal lines represent equal affinities.

[3] = biological target: T1, StrepII-tagged Mesothelin (human …); experiment: ELISA of 293T supernatant on coated Mesothelin, divided by the IgG titer from a sandwich ELISA
Protocol: (§2) Antigen-binding analysis by ELISA was performed by coating of Nunc-Immuno MaxiSorp 96-well plates (Thermo Scientific, Waltham, USA) with antigen diluted in coating buffer (100 mM bicarbonate/carbonate buffer) over night at 4° C. For sandwich ELISA, plates were coated with 2 μg/ml AffiniPure F(ab′)2 fragment donkey anti-human IgG (Jackson Immunoresearch, West Grove, USA) diluted in coating buffer over night at 4° C. After coating, plates were washed twice with PBS/0.05% Tween-20 (PBS-T), blocked with PBS-T containing 3% bovine serum albumin (BSA) (Carl Roth, Karlsruhe, Germany) for 1 hour at 37° C. and washed again 5 times with PBS/T. L11 clone supernatants were pre-diluted 3-fold, while supernatants from 293T cells were pre-diluted 50-fold. Parental mAbs diluted to 0.5 μg/ml were used to generate standard curves. 3.5-fold serial dilutions of samples were added and plates were incubated for 1 hour at 37° C. After 5 washes with PBS/T, HRPO-conjugated F(ab)2 anti-human FC-gamma (Jackson Immunoresearch, West Grove, USA) was added at 10′000-fold dilution in PBS/T containing 1% BSA, and plates were incubated for 1 hour at 37° C. Finally, plates were washed 5 times with PBS/T and 50 μl of Sigmafast OPD Peroxidase substrate (Sigma-Aldrich, St. Louis, USA) were added. Reactions were stopped by adding 50 μl of 2M H₂SO₄. Absorption was measured at 490 nm. OD50 values of standards with known concentrations and samples determined by 4-point curve fitting models were used to calculate EC50.
(§3) FIG. 10B Deconvolution and validation of recovered sequences. All possible combinations of VH/VL pairs per clone along with the parental pair as a control were transiently transfected into 293T cells. Cell clones and supernatants were analysed for antigen-binding and IgG titer by ELISA as described in FIG. 4D. Ratios of antigen-binding/IgG titers were determined to obtain antigen binding values normalized to IgG content in supernatants (Meso-binding/IgG). Normalized binding is also shown in relation to parental mAb (binding % of parental).

[4] = biological target: T1, StrepII-tagged Mesothelin (human …); experiment: SPR (Biacore T200), mAb captured by anti-human Fc-gamma IgG (ligand level 106.5 RU), Mesothelin-strep 10 to 1.25 nM as analyte, 25 °C, 1:1 model; Chi2 0.052 RU2
Protocol: as §1
(§4) Mesothelin-strep was diluted in running buffer using 2-fold serial dilutions ranging from 10 nM to 1.25 nM. Association was measured at a flow of 30 μl/min for 120 s, and dissociation was followed for 1000 s. All measurements were performed at 25° C. All curves were fitted using a 1:1 binding model with RI=0. Regeneration was done for 90 s using 100 mM H3PO4 at a flow of 30 μl/min.

[5] = biological target: T1, StrepII-tagged Mesothelin (human …); experiment: ELISA of 293T supernatant on coated Mesothelin, normalized to IgG titer and given relative to parental mAb MN
Protocol: as §2, §3

[6] = biological target: T1, StrepII-tagged Mesothelin (human …); experiment: SPR (Biacore T200), mAb captured by anti-human Fc-gamma IgG (ligand level 90.0 RU), Mesothelin-strep 10 to 1.25 nM as analyte, 25 °C, 1:1 model; Chi2 0.075 RU2
Protocol: as §1, §4

[7] = biological target: T1, StrepII-tagged Mesothelin (human …); experiment: SPR (Biacore T200), mAb captured by anti-human Fc-gamma IgG (ligand level 217.8 RU), Mesothelin-strep 10 to 1.25 nM as analyte, 25 °C, 1:1 model; Chi2 0.151 RU2
Protocol: as §1, §4

[8] = biological target: T1, StrepII-tagged Mesothelin (human …); experiment: SPR (Biacore T200), mAb captured by anti-human Fc-gamma IgG (ligand level 143.6 RU), Mesothelin-strep 10 to 1.25 nM as analyte, 25 °C, 1:1 model; Chi2 0.100 RU2
Protocol: as §1, §4

T1 sequence (Q13421 other isoform, or with tags, fused parts or gaps limits assumed): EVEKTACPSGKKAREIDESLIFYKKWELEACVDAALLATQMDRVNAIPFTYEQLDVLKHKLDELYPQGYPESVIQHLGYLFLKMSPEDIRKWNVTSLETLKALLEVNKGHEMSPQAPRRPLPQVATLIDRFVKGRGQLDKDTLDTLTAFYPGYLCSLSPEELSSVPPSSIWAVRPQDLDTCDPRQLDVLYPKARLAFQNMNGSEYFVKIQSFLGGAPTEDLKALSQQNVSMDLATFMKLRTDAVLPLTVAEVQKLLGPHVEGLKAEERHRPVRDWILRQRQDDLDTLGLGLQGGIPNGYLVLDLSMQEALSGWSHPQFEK

| Kd [1] [nM] | koff [2] [s⁻¹] | kon [2] [M⁻¹ s⁻¹] | Meso-binding/IgG [3] | Kd [4] [nM] | binding (% of parental) [5] | Kd [2] [nM] | Kd [6] [nM] | Kd [7] [nM] | Kd [8] [nM] | Binder |
| --- | --- | --- | --- | --- | --- | --- | --- | --- | --- | --- |
| 0.051 | 6.81e-05 | 1.31e+06 | 0.94 | 0.05 | 100 % of parental |  |  |  |  | parental anti-Mesothelin mouse mAb MN, produced as chimeric full-length IgG1 antibody with human constant regions (antibody, V domains shown, also called VH-MN (parental mouse); parental chimeric antibody) VH: QVQLQQPGAELVKPGASMKLSCKASGYTFTSYWMHWVKQRPGQGLEWIGMIHPNSDNTIYYEKFKSKATLTVDKSSSTAYMQLSSLTSEDSAVYYCAIIITPVVPKFDYWGQGTTLTVSS VL: DIVMTQSHQFMSTSVGDRVSVTCKASHDVGTSVAWYQQKPGQSPKLLIYWASTRHTGVPDRFTGSGSGTDFTLTISNVQSEDLADYFCQQYSSYPLTFGAGTKLELK |
|  | 0.000274 | 1.42e+06 | 1.04 |  | 111 % of parental | 0.193 | 0.193 |  |  | huMN3-1 (antibody, V domains shown) VH: QVQLQQSGAELVKPGASMKLSCKASGYTFTSYWMHWVRQAPGQGLEWIGAIHPNSDNTIYYQKFKSRVTLTVDKSISTAYMQLSSLTSEDTAVYYCAIIITPVVPKFDYWGQGTTVTVSS VL: DIQMTQSPSFLSASVGDRVTITCRASHDVGTSLAWYQQKPGQAPKLLIYWASTLQTGVPSRFSGSGSGTEFTLTISSLQPEDFATYYCQQYSSYPLTFGPGTTVDMK |
|  | 0.000218 | 1.24e+06 | 0.79 |  | 84.9 % of parental | 0.176 |  | 0.176 |  | huMN5-2 (antibody, V domains shown, No sheet says in words that huMN5a is huMN5-2) VH: QVQLQQSGAELVKPGASLKLSCKASGYTFTSYWMHWVRQAPGQGLEWIGAIHPNSDNTIYYQKFKSRFTITVDKSTSTAYMQLSSLTSEDTAVYYCAIIITPVVPKFDYWGQGTTVTVSS VL: DIVMTQSSSFMSASVGDRVSITCKASHDVGTSLAWYQQKPGQSPKLLIYWASTRQTGVPDRFSGSGSGTDFTLTISSVQSEDVATYFCQQYSSYPLTFGQGTKLEIK |
|  | 0.000115 | 1.01e+06 | 0.77 |  | 82.4 % of parental | 0.114 |  |  | 0.114 | huMN5-3 (antibody, V domains shown, No sheet says in words that huMN5b is huMN5-3) VH: QVQLQQSGAELVKPGASLKLSCKASGYTFTSYWMHWVRQAPGQGLEWIGAIHPNSDNTIYYQKFKSRFTITVDKSTSTAYMQLSSLTSEDTAVYYCAIIITPVVPKFDYWGQGTTVTVSS VL: DIVMTQSPDSLAVSLGERATITCKSSHDVGTSLAWYQQKPGQPPKLLIYWASTRESGVPDRFSGSGSGTDFTLTISSLQAEDVAVYYCQQYSSYPLTFGQGTKLEIK |
